The results in this text go back to paper doi:10.1101/2024.03.19.585761.

In the assay the target is ErbB2 (natural, endogenous in BT474 and MCF7 cells) (human (endogenous in MCF7 and BT474)) (UniProt P04626). The experiment in a line: PICO.

In the case of “ErbB3 (endogenous in BT474 and MCF7 cells) (from UniProt P21860 20-1342) (receptor)”, the ErbB2:ErbB3 complexes per cell (ppc), BT474 mock, antibody pair TTZ-2F12 worked out at 662 ppc; the ErbB2:ErbB3 complexes per cell (ppc), BT474 mock, antibody pair TTZ-Ab90 was determined as 831 ppc; the ErbB2:ErbB3 complexes per cell (ppc), MCF7 dactolisib, antibody pair TTZ-2F12 stood at 8670 ppc; the ErbB2:ErbB3 complexes per cell (ppc), MCF7 mock, antibody pair TTZ-2F12 worked out at 4370 ppc. The same substance yielded an ErbB2:ErbB3 complexes per cell (ppc), MCF7 mock, antibody pair TTZ-Ab90 of 5200 ppc; an ErbB2:ErbB3 complexes per cell, BT474 dactolisib (molecules per cell) of less than 181; a percent of ErbB2 bound to ErbB3, BT474 mock of 0.09%.
